assay: yeast display, Sf9 membrane polyspecificity reagent, FACS + sequencing; frameworks hold sequencing errors
Summary of the method: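 After 36–48 hours of galactose induction, yeast (Saccharomyces cerevisiae BJ5465) displaying a synthetic nanobody library were stained at 4 °C for 1 hour with 10% biotinylated, detergent-solubilized Sf9 membrane reagent. Streptavidin microbeads enriched the stained cells before FACS sorting into low and high (top ~1%) gates on anti-HA and streptavidin fluorescence. Each clone's polyreactivity label reflects its gate of origin.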

Sequence	polyreactivity (PSR sort gate)
QVQLVESGGGLVQAGGSLRLSCAASGRTFVGYAMGWYRQAPGKERELVAAITSGGGTYYADSVKGRFTISRDNAKNTVYLQMNSLKPEDTAVYYCNRASRRGYYYPYNYWGQGTQVTVSS	high polyreactivity
QVQLVESGGGLVQAGGSLRLSCAASGRTFVGYAMGWYRQAPGKERELVAVISGRGGSTYYADSVKGRFTISRDNAKNTVYLQMNSLKPEDTAVYYCAAYVARKWTSGYWGQGTQVTVSS	high polyreactivity
QVQLVESGGGLVQAGGSLRLSCAASGRTFVGYVMGWYRQAPGKERELVAAISKIGGRTYYADSVKGRFTISRDNAKNTVYLQMNSLKTEDTAVYYCAAERTKSIKLPRPGSMDYWGQGTQVTVSS	low polyreactivity
QVQLVESGGGLVQAGGSLRLSCAASGRTFVIYTMGWYRQAPGKERELVAAITQRGGITYYADSVKGRFTISRDNAKNTVYLQMNSLKPEDTAVYYCNSGRTYRRLGDYWGQGTQVTVSS	high polyreactivity
QVQLVESGGGLVQAGGSLRLSCAASGRTFVNYVMGWYRQAPGKEREFVAAISRNGGSTYYADSVKGRFTISRDNAKNTVYLQMNSLKPEDTAVYYCAARVYWRYNYWGQGTQVTVSS	high polyreactivity
QVQLVESGGGLVQAGGSLRLSCAASGRTFVPYAMGWYRQAPGKERELVATITSAGSTYYADSVKGRFTISRDNAKNTVYLQMNSLKPEDTAVYYCNARYYSRRWPYDYWGQGTQVTVSS	high polyreactivity
QVQLVESGGGLVQAGGSLRLSCAASGRTFVQYAMGWYRQAPGKERELVARITSVRSTNYADSVKGRFTISRDNAKNTVYLQLNSLKPEDTAVFYCAAPTVVYRSYYYWGQGTQVTVSS	high polyreactivity
QVQLVESGGGLVQAGGSLRLSCAASGRTFVRNAMAWYRQAPGKERELVAAITYGGGNTYYADSVKGRFTISRDNAKNTVYLQMNSLKPEDTAVYYCAKRRLYWSGQGWVRTYGYWGQGTQVTVSS	high polyreactivity
QVQLVESGGGLVQAGGSLRLSCAASGRTFVRNAMGWYRQAPGKERELVAGITRSGGSTYYADSVKGRFTISRDNAKNTVYLQMNSLKPEDTAVYYCAKRYDVYVGTVRPYDYWGQGTQVTVSS	low polyreactivity
QVQLVESGGGLVQAGGSLRLSCAASGRTFVRNAMGWYRQAPGKERELVASITSGGSTYYADSVKGRFTISRDNAKNTVYLQMNSLKAEDTAVYYCAKRTYTPVYGYYYWGQGTQVTVSS	high polyreactivity
QVQLVESGGGLVQAGGSLRLSCAASGRTFVRYALGWYRQAPGKERELVAAISWNDNSTYYADSVKGRFTISRDNAKNTVYLQMNSLKPEDTAVYYCATRVLTQQPGYQAYIFPEFDYWGQGTQVTVSS	low polyreactivity
QVQLVESGGGLVQAGGSLRLSCAASGRTFVRYAMGWYRQAHGKERELVAAIDSSGGRTYYADSVKGRFTISRDNAKNTVYLQMNSLKPEDTAVYYCNARRLASYRGYSWGQGTQVTVSS	high polyreactivity
QVQLVESGGGLVQAGGSLRLSCAASGRTFVRYAMGWYRQAPAKERELVAVNSRRGGSTYYADSVKGRFTISRDNAKNTVYLQMNSLKPVDTAVYYFAADYVRSKYDYWGQGTQVTVSS	high polyreactivity
QVQLVESGGGLVQAGGSLRLSCAASGRTFVRYAMGWYRQAPGKERELVAAISGDGASTYYADSVKGRFTISRDNAKNTVYLQMNSLKPEDTAVYYCNARSIRRYYYPDYDYWGQGTQVTVSS	high polyreactivity
QVQLVESGGGLVQAGGSLRLSCAASGRTFVSNTMGWYRQAPGKERELVAAINYSVASTNYADSVKGRFTISRDNAKNTVYLQMNSLKPEDTAVYYCNRASAGWGQGTQVTVSS	low polyreactivity
QVQLVESGGGLVQAGGSLRLSCAASGRTFVSYAMGWYRQAPGKETELVAAIDSSGTSTYYADSVKGRFTISRDNAKNTVYLQMNSLKPEDTAVYYCAKAWPDHWYSRYDYWGQGTQVTVSS	low polyreactivity
QVQLVESGGGLVQAGGSLRLSCAASGRTFVSYVMGWYRQAPGKERELVAAIRRRGGRTYYADSVKGRFTISRDNAKNTVYLQMNSLKPEDTAVYYCAAAQPGTNAYRVGSWGQGTQVTVSS	high polyreactivity
QVQLVESGGGLVQAGGSLRLSCAASGRTFVTNAMGWYRQAPGKERELVAAISSNGGSTYYADSVKGRFTISRDNAKNTVYLQMNSLKPEDTAVYYCNAEGQPLYVSWHDHRYIYGFDYWGQGTQVTVSS	low polyreactivity
QVQLVESGGGLVQAGGSLRLSCAASGRTFVTNAMGWYRQAPGKERELVAAISSSGGSTYYADSVKGRFTISRDNAKNTVYLQMNSLKPEDTAVYYCAVGGQTKGQYDYWGQVTQVTVSS	low polyreactivity
QVQLVESGGGLVQAGGSLRLSCAASGRTFVTNAMGWYRQAPGKERELVAAISYSGGSTTYADSVKGRFTISRDNAKNTVYLQMNSLKPEDTAVYYCNAQEDLVPKLRYYPPSDYWGQGTQVTVSS	low polyreactivity
QVQLVESGGGLVQAGGSLRLSCAASGRTFVTYAMGWYRPAPGKERELVAAITGSGGRTYYADSVKGRFTISRDNAKLTVYLQMNRLKPEDTAVYYCAKDHPSGRQYDYWGQGTQVTVSS	high polyreactivity
QVQLVESGGGLVQAGGSLRLSCAASGRTFVTYAMGWYRQAPGKERELVAAISASGGSTYYADSVKGRFTISRDNAKNTVYLQMNSLKTEDTAVYYCAKTYFLATPYGYWGQGTQVTVSS	low polyreactivity

Sequence	polyreactivity (PSR sort gate)
QVQLVESGGGLVQAGGSLRLSCAASGRTFVVNAMGWYRQAPGKERELVAAIYADSVKGRFTISRDNAKNTVYLQMNSLKPEDTAVYYCAASGGTWVYYRPEYDYWGQGTQVTVSS	low polyreactivity
QVQLVESGGGLVQAGGSLRLSCAASGRTFVVNDMGWYRQAPGNDRELVAAINYNAGSTFYADSVKGRFTISRDNAKKTVYLQMNSLKPEATAVYYCATDVYGYVEYDYWGQGTQVTVSS	low polyreactivity
QVQLVESGGGLVQAGGSLRLSCAASGRTFVVYAMGWYRQAPGKERELVASISSIGDITNYADSVKGRFTISRDNAKNTVYLQMNSLKPEYTAVYYCTAPIGGSYNTRRAAEYDYWGQGTQVTVSS	low polyreactivity
QVQLVESGGGLVQAGGSLRLSCAASGRTFVVYAMGWYRQAPGKERELVAVISFTGDSTFYADSVKGRFTISRDNAKNTVYLQMNSLKPEDTAVYYCAADFRRVFSKYSYYLYFDFDYWGQGSQVTVSS	low polyreactivity
QVQLVESGGGLVQAGGSLRLSCAASGRTFVYNAMGWYRQAPGKERELVAAIDWSGGSTYYADSVKGRFTISRDNAKNTVYLQMNSLKPEDTAVYYCAADYYYPSQMDYWGQGTQVTVSS	low polyreactivity
QVQLVESGGGLVQAGGSLRLSCAASGRTFVYNAMGWYRQAPGKERELVAAISSDGASTYYADSVKGRFTISRDNAKNTVYLQMNSLKPEDTAVYYCAADLLVSWWLDYDYWGQGTQVTVSS	low polyreactivity
QVQLVESGGGLVQAGGSLRLSCAASGRTFVYNAMGWYRQAPGKERELVAAISSGGGTNYADSVKGRFTISRDNAKNTVYLQMNSLKPEDTAVYYCAAGFDGSRHPGFDSWVQGTQVTVSS	low polyreactivity
QVQLVESGGGLVQAGGSLRLSCAASGRTFVYNAMGWYRQAPGKERELVAAISSSGGSTRYADSVKGRFTISRDNAMNTVYLQMNSLKPEDTAVYYCATRTKAYLYTYYYWGQGTQVTVSS	high polyreactivity
QVQLVESGGGLVQAGGSLRLSCAASGRTFVYYAMGWYRQAPGKEREFVAAISRSGGRTSYADSVKGRFTISRDNAKNTVYLQMNSLKPEDTAVYYCAAEKRTQPTSREYYWGQGTQVTVSS	high polyreactivity
QVQLVESGGGLVQAGGSLRLSCAASGRTFVYYAMGWYRQAPGKERELVAAISRSGSTYYADSVKGRFTISRDNAKNTVYLQMNSLKPEDTAVYYCAARSVYTGRPYYYWGQGTQVTVSS	high polyreactivity
QVQLVESGGGLVQAGGSLRLSCAASGRTFVYYAMGWYRQAPGKERELVAAITFSGGSTYYADSVKGRFTISRDNAKNTVYLQMNSLKPEDTAVYYCAAQYRYSYPLGDYWGQGTQVTVSS	low polyreactivity
QVQLVESGGGLVQAGGSLRLSCAASGRTFWANTMGWYRQAPGKEREFVAAISGRDVSTYYADSVKGRFTISRDNAMNTVYLQMNSLKPEDTAVYYCAAGNLYYAEYDYWGQGTQVTVSS	low polyreactivity
QVQLVESGGGLVQAGGSLRLSCAASGRTFWDYAMGWYRQAPGKERELVAAITGGDSTYADSVKGRFTISRDNAKNTVYLQMNSLKPEDTAVYYCNADSTWDPYVRWALLYEYWGQGTQVTVSS	low polyreactivity
QVQLVESGGGLVQAGGSLRLSCAASGRTFWFNAMGWYRQAPGKEREFVAAISWRGGSTYYADSVKGRFTISRDNAKNTVYLQMNSLKPEDTAVYYCAVDGEYYSDVYLYYRWDDYWGQGTQVTVSS	low polyreactivity
QVQLVESGGGLVQAGGSLRLSCAASGRTFWFYGMGWYRQAPGKEREFVARISASGGSTYYADSVKGRYTISRDNAKNTVYLQMNSLKPEDTAVYYCARDTPWRYYYWGQGTQVTVSS	high polyreactivity
QVQLVESGGGLVQAGGSLRLSCAASGRTFWGNAMGWYRQAPGKDRELVAAITSGGSTYYADSVKGRFTISRDNAKNTVYLQMNSLKPEDTAVYYCATRRIYKWYRYYYWGQGTQVTVSS	high polyreactivity
QVQLVESGGGLVQAGGSLRLSCAASGRTFWGYVKGWYRQAPGKERELVAAITSSTGRTYYADSVKGRFTISRDNAKNTVYLQMNSLKPEDTAVYYCAAGYNGYGLQYYYWGQGTQVTVSS	high polyreactivity
QVQLVESGGGLVQAGGSLRLSCAASGRTFWKNTMGWYSQAPGKERELVAVISSGGVSTSYADSVTGRFTISRDKATNTVYLHMNSLKPEDTAVYYCAADGYYIGPYDYWGQGTQVTVSS	low polyreactivity
QVQLVESGGGLVQAGGSLRLSCAASGRTFWKYAMGWYRQAPGKERELVAAITASGARTYYADSVKGRFTISRDNAKNTVYLQMNSLKPEDTAVYYCNAGSVSDRQMDYWGQGTEVTVSS	low polyreactivity
QVQLVESGGGLVQAGGSLRLSCAASGRTFWKYAMGWYRQAPGKERELVAAITSSGGSTYYADSVKGRFTISRDNAKNTVYLQMNSLKPEDTAVYYCAAPGWGLGYNYWGQGTQVTVSS	low polyreactivity
QVQLVESGGGLVQAGGSLRLSCAASGRTFWKYARGWYRQAPGKERELVAAISSSGGNTYYADSVKGRFTISRDNAKNTVYLQMNSLKPEDTAVYYCAARLPRGAYYYWGQGTQVTVSS	high polyreactivity
